What was measured:
[1] = biological target: T1, human serum albumin (human, UniProt P02768 25-609); test: SPR (Biacore T200), TrYbe 18B captured by anti-human F(ab')2, HSA titrated 100 nM to 3.125 nM
T1 construct: also called HSA; Human Albumin
Experimental: (§1) BIA (Biamolecular Interaction Analysis) was performed using a Biacore T200 (GE Healthcare). Affinipure F(ab′)2 Fragment goat anti-human IgG, F(ab′)2 fragment specific (Jackson ImmunoResearch) was immobilised on a CM5 Sensor Chip via amine coupling chemistry to a capture level of ˜5000 response units (RUs). HBS-EP buffer (10 mM HEPES pH 7.4, 0.15 M NaCl, 3 mM EDTA, 0.05% Surfactant P20, GE Healthcare) was used as the running buffer with a flow rate of 10 μL/min. […] The surface was regenerated by 2×10 μL injection of 50 mM HCl, interspersed by a 5 μL injection of 5 mM NaOH at a flowrate of 10 μL/min. Background subtraction binding curves were analysed using the T200evaluation software (version 1.0) following standard procedures. Kinetic parameters were determined from the fitting algorithm.

[2] = biological target: T2, human IL-17A (human, UniProt Q16552 24-155); test: SPR (Biacore T200), TrYbe 18B captured by anti-human F(ab')2, human IL-17A titrated 5 nM to 0.15625 nM; kd at the instrument's limit
T2 construct: also called hIL-17A
Experimental: as §1

[3] = biological target: T3, cynomolgus TNF-alpha (cynomolgus, UniProt P79337 77-233); test: cell-based or functional assay
[4] = biological target: T4, human TNF-alpha (human, UniProt P01375 77-233); test: cell-based or functional assay
[5] = biological target: T5, human IL-17F (human, UniProt Q96PD4 31-163); test: SPR (Biacore T200), TrYbe 18B captured by anti-human F(ab')2, human IL-17F titrated 10 nM to 0.3125 nM
T5 sequence (looked up): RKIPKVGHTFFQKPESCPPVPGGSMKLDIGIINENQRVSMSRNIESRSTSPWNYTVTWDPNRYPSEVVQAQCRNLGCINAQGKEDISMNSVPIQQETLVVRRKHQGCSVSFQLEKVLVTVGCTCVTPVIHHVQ
Experimental: as §1

[6] = biological target: T6, cynomolgus IL-17A (cynomolgus, UniProt A0A2K5TTB0 24-155); test: SPR (Biacore T200), TrYbe 18B captured by anti-human F(ab')2, cynomolgus IL-17A titrated 10 nM to 0.3125 nM; footnote: dissociation limited due to limit of the instrument
T6 construct: also called cIL-17A; cynoIL-17A
Experimental: as §1, with “of […]. Background subtraction” for “of 10 μL/min. Background subtraction”

[7] = biological target: T4, human TNF-alpha; test: SPR (Biacore T200), TrYbe 18B captured by anti-human F(ab')2, human TNF titrated 5 nM to 0.15625 nM
Experimental: as §1

[8] = biological target: T3, cynomolgus TNF-alpha; test: SPR (Biacore T200), TrYbe 18B captured by anti-human F(ab')2, cynomolgus TNF titrated 5 nM to 0.15625 nM
Experimental: as §1, with “of […]. Background subtraction” for “of 10 μL/min. Background subtraction”

[9] = biological target: T2, human IL-17A; test: SPR (Biacore T200), TrYbe 18B captured by anti-human F(ab')2, human IL-17A titrated 5 nM to 0.15625 nM; footnote: dissociation limited due to limit of the instrument
Experimental: as §1

[10] = biological target: T6, cynomolgus IL-17A; test: SPR (Biacore T200), TrYbe 18B captured; column head prints KD(nM), but the KD(M) column shows the value is in pM; kd at the instrument's limit
Experimental: as §1, with “of […]. Background subtraction” for “of 10 μL/min. Background subtraction”

[11] = biological target: T6, cynomolgus IL-17A; test: SPR (Biacore T200), TrYbe 18B captured by anti-human F(ab')2, cynomolgus IL-17A titrated 10 nM to 0.3125 nM
Experimental: as §1, with “of […]. Background subtraction” for “of 10 μL/min. Background subtraction”

[12] = biological target: T7, cynomolgus IL-17F (cynomolgus, UniProt G7P4V0 31-163); test: SPR (Biacore T200), TrYbe 18B captured by anti-human F(ab')2, cynomolgus IL-17F titrated 40 nM to 1.25 nM
T7 construct: also called cyno IL-17F
T7 sequence: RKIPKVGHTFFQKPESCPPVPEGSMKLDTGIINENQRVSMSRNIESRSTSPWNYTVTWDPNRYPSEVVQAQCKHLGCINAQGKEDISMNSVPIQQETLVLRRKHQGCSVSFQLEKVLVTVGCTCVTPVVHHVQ
Experimental: as §1, with “of […]. Background subtraction” for “of 10 μL/min. Background subtraction”

[13] = biological target: T2, human IL-17A; test: SPR (Biacore T200), TrYbe 18B captured by anti-human F(ab')2, human IL-17A titrated 5 nM to 0.15625 nM
Experimental: as §1

[14] = biological target: T3, cynomolgus TNF-alpha; test: SPR (Biacore T200), TrYbe 18B captured; column head prints KD(nM), but the KD(M) column shows the value is in pM
Experimental: as §1, with “of […]. Background subtraction” for “of 10 μL/min. Background subtraction”

[15] = biological target: T7, cynomolgus IL-17F; test: as above
Experimental: as §1, with “of […]. Background subtraction” for “of 10 μL/min. Background subtraction”

[16] = biological target: T8, cynomolgus serum albumin (cynomolgus, UniProt A2V9Z4 25-608); test: as above
T8 construct: also called Cynomolgus Albumin; CSA
Experimental: as §1, with “of […]. Background subtraction” for “of 10 μL/min. Background subtraction”

[17] = biological target: T8, cynomolgus serum albumin; test: SPR (Biacore T200), TrYbe 18B captured by anti-human F(ab')2, cynomolgus albumin titrated 100 nM to 3.125 nM
Experimental: as §1, with “of […]. Background subtraction” for “of 10 μL/min. Background subtraction”

[18] = biological target: T9, murine TNF-alpha (mouse, UniProt P06804 80-235); test: L929 cell killing assay with murine TNF-α (N=3); told in words
T9 construct: also called mouse TNF; Murine TNF-α
T9 sequence (looked up): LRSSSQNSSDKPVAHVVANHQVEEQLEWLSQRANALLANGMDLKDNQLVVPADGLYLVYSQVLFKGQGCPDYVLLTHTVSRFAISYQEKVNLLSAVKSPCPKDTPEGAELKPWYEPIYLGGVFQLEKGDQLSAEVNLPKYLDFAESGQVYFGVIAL

[19] = biological target: T6, cynomolgus IL-17A; test: SPR (Biacore T200), TrYbe 18B captured by anti-human F(ab')2, cynomolgus IL-17A titrated 10 nM to 0.3125 nM; kd at the instrument's limit
Experimental: as §1, with “of […]. Background subtraction” for “of 10 μL/min. Background subtraction”

B1: Fab496.g3-(HC)dsscFv(HL)2109 / Fab496.g3-(LC)dsscFv(HL)645 (TrYbe 18B) (other)
heavy: EVQLVESGGGLVQPGGSLRLSCAASGFTFSDYNMAWVRQAPGKGLEWVATITYEGRNTYYRDSVKGRFTISRDNAKNSLYLQMNSLRAEDTAVYYCASPPQYYEGSIYRLWFAHWGQGTLVTVSSASTKGPSVFPLAPSSKSTSGGTAALGCLVKDYFPEPVTVSWNSGALTSGVHTFPAVLQSSGLYSLSSVVTVPSSSLGTQTYICNVNHKPSNTKVDKKVEPKSCSGGGGSGGGGSEVQLVESGGGLVKPGGSLRLSCAASGYTFTDNYIHWVRQAPGKCLEWIGYINPSSAYAHYNEKFKTRFTISVDKAKNSAYLQMNSLRAEDTAVYYCTRRYYSAMPFAYWGQGTLVTVSSGGGGSGGGGSGGGGSGGGGSDIQMTQSPSSLSASVGDRVTITCRASEDIYSGLAWYQQKPGKVPKLLIYDSSTLHTGVPSRFSGTGSGTDYTLTISSLQPEDVATYFCQQNYDFPLTFGCGTKLEIKRT
light: AIQLTQSPSSLSASVGDRVTITCRADESVRTLMHWYQQKPGKAPKLLIYLVSNSEIGVPDRFSGSGSGTDFRLTISSLQPEDFATYYCQQTWSDPWTFGQGTKVEIKRTVAAPSVFIFPPSDEQLKSGTASVVCLLNNFYPREAKVQWKVDNALQSGNSQESVTEQDSKDSTYSLSSTLTLSKADYEKHKVYACEVTHQGLSSPVTKSFNRGECSGGGGSGGGGSEVQLLESGGGLVQPGGSLRLSCAVSGIDLSNYAINWVRQAPGKCLEWIGIIWASGTTFYATWAKGRFTISRDNSKNTVYLQMNSLRAEDTAVYYCARTVPGYSTAPYFDLWGQGTLVTVSSGGGGSGGGGSGGGGSGGGGSDIQMTQSPSSVSASVGDRVTITCQSSPSVWSNFLSWYQQKPGKAPKLLIYEASKLTSGVPSRFSGSGSGTDFTLTISSLQPEDFATYYCGGGYSSISDTTFGCGTKVEIKRT
notes: Tri-specific Fab-2xdsscFv (TrYbe) with no Fc; Stably expressed in CHO; also called Fab496.g3-(HC)dsHLscFv2109 (LC)dsHLscFv645
[1]
  Kd: 1740 pM
  koff: 0.000135 s⁻¹
  kon: 77500 M⁻¹ s⁻¹
[2]
  Kd: ≤ 1.81 pM
[3]
  Mean EC50, L929 cell survival (CellTiter-Glo) with Actinomycin D and cynomolgus TNF-α: 4.97 pM
[4]
  Mean EC50, L929 cell survival (CellTiter-Glo) with Actinomycin D and human TNF-α: 5.87 pM
[5]
  Kd: 7.51 pM
  koff: 3.8e-05 s⁻¹
  kon: 5.06e+06 M⁻¹ s⁻¹
[6]
  koff: ≤ 1e-05 s⁻¹
[7]
  Kd: 11.6 pM
  koff: 6.43e-05 s⁻¹
  kon: 5.54e+06 M⁻¹ s⁻¹
[8]
  Kd: 7.16 pM
  koff: 6.38e-05 s⁻¹
  kon: 8.9e+06 M⁻¹ s⁻¹
[9]
  koff: ≤ 1e-05 s⁻¹
[10]
  Kd: 5.99 pM
[11]
  kon: 1.67e+06 M⁻¹ s⁻¹
[12]
  Kd: 288 pM
  koff: 0.000167 s⁻¹
  kon: 582000 M⁻¹ s⁻¹
[13]
  kon: 5.52e+06 M⁻¹ s⁻¹
[14]
  Kd: 7.16 pM
[15]
  Kd: 288 pM
[16]
  Kd: 2720 pM
[17]
  Kd: 2720 pM
  koff: 0.000159 s⁻¹
  kon: 58300 M⁻¹ s⁻¹
[18]
  binding result: no binding
[19]
  Kd: ≤ 5.99 pM
